Test results published in the supplement of paper PMC9170038.

Tests used:
MS2 coat protein [1] = assay: apparent KD of MS2 coat protein, switch ON state; designed switch direction (-1 OFF switch, 1 ON switch): -1; higher = weaker reporter binding; details: FMN input: 0 or 200 uM; Eterna round: R93 (includes R88 designs)
Procedure, shortened: (§1)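 With or without constant ligand, designed RNA switches in 100 mM Tris-HCl pH 7.5, 80 mM KCl and 4 mM MgCl2 were titrated with SNAP-549-labelled MS2 coat protein. Concentrations went up in twofold steps from 0.7 or 1.5 nM to 3 µM. The switches had been transcribed on-chip from Illumina sequencing clusters, and apparent KD is the per-design median of normalised cluster binding-curve fits.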

MS2 coat protein [2] = assay: apparent KD of MS2 coat protein, switch OFF state (with FMN for OFF switches, without FMN for ON switches); designed switch direction (-1 OFF switch, 1 ON switch): -1; higher = weaker reporter binding; details: FMN input: 0 or 200 uM; Eterna round: R93 (includes R88 designs)
Procedure, shortened: as §1

Sequence | apparent KD of MS2 coat protein (MS2 coat protein [1]) [µM] | apparent KD of MS2 coat protein (MS2 coat protein [2]) [µM]
AAAAAGCGAGGAUAUACAUAGCUAAGACAAAUAAGCAAAAAACAUGAGGAUCACCCAUGUAGAAGGCGCAAAAA [Exclusion2-01] | 0.0196 | 0.0154
AGCUAGUCAGGAUAUACGAAAAUGUCAGAAGACGUAAGGGAACAUGAGGAUCACCCAUGUAGAAGGGACUAGCA [Diamond 41] | 0.0307 | 0.108
AAGAAGUGAGGAUAUCGAAGACAAAAAAAAAAAAAGUCGAACGAGAAGGCACAUGAGGAUCACCCAUGUAAGAA [shorter stack] | 0.0377 | 0.0403
UAAAGACAUGAGGAUCACCCAUGUGAGGAUAUAGGUGUAUGCAAAAAAAAGCAUACACCUAGAAGGCACAGAAA [JR_Exc001_Sub303] | 0.044 | 0.0763
GUCAGCUGAGGAUAUACAGGUGAGGCCGCAGGACAAAAUAUACAUGAGGAUCACCCAUGUAGAAGGCGGAAGAC [Vegea] | 0.0338 | 0.0445
AGUCAUACAGGAUAUACAUGAGGAUCACCCAUGUAAAUCCUAAAAAAAUGAUCCUCAUGUAGAAGGGUAUGACA [EX3 221: Super Stable 21] | 0.0168 | 0.0144
AAAAGUAGAGGAUAUACAUGAGGAUCACCCAUGUAGAAAGGAAGUAUAUAUAUGGCGUGUAGAAGGCUGCAUGA [Mat - Mod of Nando] | 0.0267 | 0.028
AAGAAGUCAGGAUAUGCCAAAGAUCACGAAAGUGACUAAGGGCAGAAGGGACAUGAGGAUCACCCAUGUAAAGA [Opal 4] | 0.0429 | 0.0528
AAAAUACAUGAGGAUCACCCAUGUCAGGAUAUGCUAAAAAAAAAAUUAAAAAAAAAAUGUAGAAGGGACUAAAA [Exclusion Z2] | 0.0537 | 0.04
AAGAAGUGAGGAUAUACAUGAGGAUCACCCAUGUAAAAGAAAGAAGGGAAAGAGAAAAGUAGAAGGCACAAGAA [Usermaatre-setepenamun Osorkon III] | 0.0285 | 0.0313
AGACAUACAGGAUAUACAUGGGAAAAAAAAAAAAAAAUUCUACAUGAGGAUCACCCAUGUAGAAGGGUAUGUCA [Ex2 Design 171: Random 1B] | 0.0811 | 0.0311
AAAAUGUUAGGAUAUGUGAAGGCGUCUGAUAGACGAGGCCUGCAGAAGGAACAUGAGGAUCACCCAUGUAAAAA [Mod 3 of Nando's Round 1 Power Srip] | 0.034 | 0.0256
AAAUAGCAAGGAUAUACAUGAGGAUCACCCAUGUAAAAAUGGAAAGUAAAAGAAUAAAGUAGAAGGUGCAAAUA [Ex 3 Tesla 2] | 0.0206 | 0.0369
AAGAAGCUAGGAUAUACAUGAGGAUCACCCAUGUAAAAGAAAGAAAGGGAAAAGAAAAGUAGAAGGAGCAAGAA [Netjerikheperre-setpenamun Siamun-meryamun] | 0.0122 | 0.0181
AAAAAGGUAGGAUAUGCUAAAUAACAUGUUGAAUAAAUAAAACAUGAGGAUCACCCAUGUAGAAGGACCAAAAA [Ex 2 Tesla 2] | 0.054 | 0.0581
AUAAGUCGAGGAUAUACGAAAUGCUAGCGAAAGCUAGCAUAACAUGAGGAUCACCCAUGUAGAAGGCGACAAUA [Tetraloop hairpin BlockHead... 61% 3] | 0.0229 | 0.0206
AAGUAGGUAGGAUAUACAUAGAUACAGAUUCAUGUGGAACUACAUGAGGAUCACCCAUGUAGAAGGACCUAAUA [AJ 40] | 0.0302 | 0.126
AAGAAGGGAGGAUAUACAAAAUAAAAGAAAAGAAAGAAAGAACAUGAGGAUCACCCAUGUAGAAGGCCUAAGAA [Merneferre Ay I] | 0.0238 | 0.00874
AACAAGUGAGGAUAUUGGAAAAGUAAAUAAGUAAAACAAAACAAGAAGGCACAUGAGGAUCACCCAUGUAAAUA [JR_Exc004_Sub017] | 0.0219 | 0.0179
AAAAAAGGAGGAUAUACGAACAUGUCAAAAGACGUGAAGGGACAUGAGGAUCACCCAUGUAGAAGGCCUAAAAA [JL Part Open 34] | 0.0354 | 0.0608
UAUAUACAUGAGGAUCACCCAUGUCAGGAUAUGCGCCCAGAAUAUACAUAUGAUACAAGCAGAAGGGACACUAA [JR_Exc001_Sub205] | 0.0553 | 0.0493

Sequence | apparent KD of MS2 coat protein (MS2 coat protein [1]) [µM] | apparent KD of MS2 coat protein (MS2 coat protein [2]) [µM]
AAACACGGAGGAUAUACACCAUACAAACCUCUAAACAAAAAACAUGAGGAUCACCCAUGUAGAAGGCCGAACAA [Default title] | 0.0247 | 0.028
GAAAAGGCAGGAUAUACAGGAUAUAGAAGGAGGAUAUAGAGACAUGAGGAUCACCCAUGUAGAAGGGCCAAAAG [Diamond 80] | 0.0483 | 0.113
AAGAAGUGAGGAUAUCGAAGACUGUCGAAAAGACAGUCGAACGAGAAGGCACAUGAGGAUCACCCAUGUGAGGA [Marsurpial 65% 2] | 0.0262 | 0.0501
AAAAAACAUGAGGAUCACCCAUGUAAGGAUAUGCAAAAUAAAAGAAAUAAAAAGGAAAGCAGAAGGUACAUGAA [JL wbt mod 8] | 0.0219 | 0.0425
AGAUAGUCAGGAUAUACGAACAAGAAAAAAGACGAGAACGGACAUGAGGAUCACCCAUGUAGAAGGGACUAGAA [Diamond 11] | 0.045 | 0.0286
AAGAAGCUAGGAUAUACUUGGGCAACAAAUAAACUAAUAUAACAUGAGGAUCACCCAUGUAGAAGGAGCAGAAA [JR_Exc002_Sub205] | 0.0397 | 0.0398
AAAAAGUCAGGAUAUGUAGCAAAAAGUGAUCCAAAAAAGCUACAGAAGGGACAUGAGGAUCACCCAUGUAAAAA [Ex4: 931] | 0.0865 | 0.0982
CGCAAGUCAGGAUAUUCGACAAGUAAAUCAGUAGAUCAAAAGAAGAAGGGACAUGAGGAUCACCCAUGUAAAUA [JR_Exc004_Sub403] | 0.04 | 0.026
AAAAAACAUGAGGAUCACCCAUGUGAGGAUAUGCUAAAAAAAAUAAAAAUAAAACAUAGCAGAAGGCACACCAA [Amethyst 57] | 0.0282 | 0.0384
AAAUUGUCAGGAUAUCCUAUAACUCUAAAAUAGAGGAGAUAGGAGAAGGGACAUGAGGAUCACCCAUGUAAAAC [May 86] | 0.0437 | 0.0617
AGCAAGUCAGGAUAUACGAAUAAGACAAAAGACGUGAAGGGACAUGAGGAUCACCCAUGUAGAAGGGACAAGCA [LROPPY Exclusion 2 - v01_mod Fisker] | 0.0809 | 0.0605
AAGAAUGCAGGAUAUACAUGAGGAUCACCCAUGUAAAAGAAAGAGGGAAAAGAGAAAAGUAGAAGGGCAAAGAA [Cleopatra III] | 0.0261 | 0.0376
AAAAAGUCAGGAUAUACAAAAGUGCGAAAGCACAAAAUGGGACAUGAGGAUCACCCAUGUAGAAGGGACAAGAA [JL In the Red 01 (Mod)] | 0.148 | 0.472
AAAGAUGCAGGAUAUACAUGAGGAUCACCCAUGUUAGACCUGAAAAAGGGAAAAGAAAGUAGAAGGGCAUAAUA [Ex 3 May 31] | 0.0128 | 0.0115
AAGAAUGCAGGAUAUACAAAAUAAAAGAAAAGAAAGAAAGAACAUGAGGAUCACCCAUGUAGAAGGGCAAAGAA [Menwadjre Sihathor] | 0.03 | 0.0282
AAAGGGUCAGGAUAUCGUUUAAUAAUAAAAUAAAUAAAGAACGAGAAGGGACAUGAGGAUCACCCAUGUAUAAA [May 76] | 0.0653 | 0.0898
AGUCGGCGAGGAUAUACAUGAGGAUCACCCAUGUGAGAGAAUAUAGUGAGUUAGACAAGUAGAAGGCGCUGACA [JL Lego Mod 11] | 0.0432 | 0.135
AAAAACUCAGGAUAUAUUAUGGGACAAUGAAGGAAGAUAAAACAUGAGGAUCACCCAUGUAGAAGGGAGAAAAA [JR_Exclusion2_Sub2] | 0.0577 | 0.0628
AAGGGACAUGAGGAUCACCCAUGUUAGGAUAUCGGAAAAGGAAAAAAAAAAAAGAAGACGAGAAGGGACACCAA | 0.0595 | 0.0488
AAGGUACGAGGAUAUACAUAGAUACAGACACAUGUGGAUGUACAUGAGGAUCACCCAUGUAGAAGGCGUAUAUA [AJ 21] | 0.064 | 0.101
